In series [1] the target is complement C1q (purified) (UniProt P02745 23-245; P02746 28-253; P02747 29-245). Description: ELISA.
Series [2] deals with the molecule itself. Description: negative staining electron microscopy.

Sequence of complement C1q (purified) (P02745 23-245, chain 1 of 3): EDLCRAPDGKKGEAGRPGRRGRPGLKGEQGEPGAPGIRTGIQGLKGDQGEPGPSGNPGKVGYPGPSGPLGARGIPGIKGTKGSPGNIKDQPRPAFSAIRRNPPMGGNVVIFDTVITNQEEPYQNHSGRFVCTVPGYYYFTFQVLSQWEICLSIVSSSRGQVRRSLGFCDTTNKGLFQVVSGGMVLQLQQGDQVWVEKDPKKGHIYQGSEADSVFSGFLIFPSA
Sequence of complement C1q (purified) (P02746 28-253, chain 2 of 3): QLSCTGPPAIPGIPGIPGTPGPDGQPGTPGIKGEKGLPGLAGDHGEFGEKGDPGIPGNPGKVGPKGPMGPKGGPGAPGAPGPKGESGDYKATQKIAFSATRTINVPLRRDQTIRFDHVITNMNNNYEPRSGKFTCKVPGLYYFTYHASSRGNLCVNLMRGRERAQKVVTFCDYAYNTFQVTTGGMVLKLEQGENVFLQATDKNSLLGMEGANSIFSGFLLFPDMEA
Sequence of complement C1q (purified) (P02747 29-245, chain 3 of 3): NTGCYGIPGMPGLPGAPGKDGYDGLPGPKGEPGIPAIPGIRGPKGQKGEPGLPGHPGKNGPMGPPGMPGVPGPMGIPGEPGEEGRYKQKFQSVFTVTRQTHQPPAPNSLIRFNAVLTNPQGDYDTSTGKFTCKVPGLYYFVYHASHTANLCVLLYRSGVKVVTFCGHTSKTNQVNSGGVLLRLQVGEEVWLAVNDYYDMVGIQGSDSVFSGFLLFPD

B1: Nptxr/Nptx2 coexpressed on a stable doxycycline-inducible CHO cell line (complex)
chain 1: MKFLAVLLAAGMLAFLGAVICIIASVPLAASPARALPGGADNASVASGAAASPGPQRSLSALHGAGGSAGPPALPGAPAASAHPLPPGPLFSRFLCTPLAAACPSGAQQGDAAGAAPGEREELLLLQSTAEQLRQTALQQEARIRADQDTIRELTGKLGRCESGLPRGLQGAGPRRDTMADGPWDSPALILELEDAVRALRDRIDRLEQELPARVNLSAAPAPVSAVPTGLHSKMDQLEGQLLAQVLALEKERVALSHSSRRQRQEVEKELDVLQGRVAELEHGSSAYSPPDAFKISIPIRNNYMYARVRKALPELYAFTACMWLRSRSSGTGQGTPFSYSVPGQANEIVLLEAGHEPMELLINDKVAQLPLSLKDNGWHHICIAWTTRDGLWSAYQDGELQGSGENLAAWHPIKPHGILILGQEQDTLGGRFDATQAFVGDIAQFNLWDHALTPAQVLGIANCTAPLLGNVLPWEDKLVEAFGGATKAAFDVCKGRAKA
chain 2: GAQDSPAPGSRFVCTALPPEAVHAGCPLPAMPMQGGAQSPEEELRAAVLQLRETVVQQKETLGAQREAIRELTGKLARCEGLAGGKARGAGATGKDTMGDLPRDPGHVVEQLSRSLQTLKDRLESLEHQLRANVSNAGLPGDFREVLQQRLGELERQLLRKVAELEDEKSLLHNETSAHRQKTESTLNALLQRVTELERGNSAFKSPDAFKVSLPLRTNYLYGKIKKTLPELYAFTICLWLRSSASPGIGTPFSYAVPGQANEIVLIEWGNNPIELLINDKVAQLPLFVSDGKWHHICVTWTTRDGMWEAFQDGEKLGTGENLAPWHPIKPGGVLILGQEQDTVGGRFDATQAFVGELSQFNIWDRVLRAQEIVNIANCSTNMPGNIIPWVDNNVDVFGGASKWPVETCEERLLDL
In general, Kd refers to a measure of binding affinity in units of concentration. Read a high Kd as lower affinity. B1 had a Kd in series [1] of roughly 2 nM.

B2: neuronal pentraxin 2 (purified, recombinant) (natural protein, UniProt P47972 16-431, looked up)
chain: B1 chain 2
One may read the stoichiometry N as a count of units in the complex or per binding partner. For the molecule B2, the “stoichiometry N” value in series [2] stood at 6.

The record behind these values is article PMC10467038 (Science translational medicine, 2023).
